From patent publication US20250195212A1, “METHOD FOR GENERATING IN-SITU VASCULAR STENT AND PHOTOCURABLE DRUG-LOADED BALLOON CATHETER FOR IMPLEMENTING THE METHOD” (HANGZHOU MATRIX MEDICAL TECHNOLOGY CO., LTD., priority 2022, published 2025)

Key:
[1] = Permeability characterization: penetration into blood vessel slices, laser confocal microscope; format: in vitro ADME; conditions: 1 mg/mL dripped onto inner surface of 2*2 cm blood vessel slice
Experimental: 1 mg/mL of the photosensitive material with blood vessel repair function prepared in Example 1 was dripped onto the inner surface of the blood vessel, and the residual liquid on the inner surface of the blood vessel was wiped dry after a certain period of time, and the penetration depth in the blood vessel was measured using a laser confocal microscope.
Control group: a blood vessel was cut into 2*2 cm slices, with the inner surface facing upward and kept moist with 0.9% (by mass) physiological saline. 1 mg/mL of the third product in Example 1 was dripped onto the inner surface of the blood vessel, and the residual liquid on the inner surface of the blood vessel was wiped dry after a certain period of time, and the penetration depth in the blood vessel was measured using a laser confocal microscope.

[2] = test system: porcine peripheral blood vessels; assay: Lumen gain and protein cross-linking after angioplasty with riboflavin balloon and photo-activation
Experimental: A porcine peripheral blood vessel was immersed in PBS buffer. Balloons (with a pore size of 50 μm and a surface porosity of 50%) was introduced into the blood vessel. The fluid prepared in Preparation Example 1 was infused to expand the balloons from the compressed state to the inflated state at a pressure of 6 atm. While maintaining the pressure of the balloons, a light source device activated the light-guiding element to emit 450 nm light, with a photocuring duration of 5 minutes.
A porcine peripheral blood vessel was immersed in PBS buffer. Balloons prepared in Preparation Example 6 was pushed into the blood vessel. The compressed balloons were expanded by injecting fluid at a pressure of 6 atm. Then, while maintaining the pressure of the balloons, the light-guiding element emitted light with a wavelength of 450 nm, with a photocuring duration of 5 minutes.
A porcine peripheral blood vessel was immersed in PBS buffer. Balloons prepared in Preparation Example 9 was pushed into the blood vessel. The compressed balloons were expanded by injecting fluid at a pressure of 6 atm. Then, while maintaining the pressure of the balloons, the light-guiding element emitted light with a wavelength of 450 nm, with a photocuring duration of 5 minutes.
A porcine peripheral blood vessel was immersed in PBS buffer. Balloons without riboflavin were pushed into the blood vessel. […]

N=C(N)NCCCC(N)C(=O)NCCCCC(NC(=O)C(N)CCCNC(=N)N)C(=O)NCCCCC(NC(=O)C(CCCCNC(=O)C(N)CCCNC(=N)N)NC(=O)C(N)CCCNC(=N)N)C(=O)NCCNC(=O)C(CCCCNC(=O)C(CCCCNc1ccc2c3c(cccc13)C(=O)N(CCOCCOCCOCCN1C(=O)c3cccc4c(NCCOCCOCCOCCN)ccc(c34)C1=O)C2=O)Nc1ccc2c3c(cccc13)C(=O)N(CCOCCOCCOCCN1C(=O)c3cccc4c(NCCOCCOCCOCCN)ccc(c34)C1=O)C2=O)NC(=O)C(CCCCNc1ccc2c3c(cccc13)C(=O)N(CCOCCOCCOCCN1C(=O)c3cccc4c(NCCOCCOCCOCCN)ccc(c34)C1=O)C2=O)Nc1ccc2c3c(cccc13)C(=O)N(CCOCCOCCOCCN1C(=O)c3cccc4c(NCCOCCOCCOCCN)ccc(c34)C1=O)C2=O (centres unmarked) [Experimental group]
The time when the drug is observed in the adventitia of blood vessels [1]: 18 s

Cc1cc2nc3c(=O)[nH]c(=O)nc-3n(C[C@H](O)[C@H](O)[C@H](O)CO)c2cc1C [riboflavin]
protein cross-linking under photo-activation / medial fiber network of treated arteries [2]: denser medial fiber network
